{"source": "the RNAGym collection of RNA variant scans (doi:10.7554/elife.80360)", "parents": {"B1": {"name": "HDV Ribozyme (parent)", "chain": "GGCCGGCAUGGUCCCAGCCUCCUCGCUGGCGCCGGCUGGGCAACAUUCCGAGGGGACCGUCCCCUCGGUAAUGGCGAAUGGGACCCA"}}, "data": [{"variants_of": "B1", "test": "self-cleavage, relative activity (ratio to wild type); higher = more cleavage; co-transcriptional", "values": [{"variant": "G5C G38C", "self-cleavage": 0.108}, {"variant": "C58U A70G", "self-cleavage": 1.01}, {"variant": "C84U C85G", "self-cleavage": 0.923}, {"variant": "A45U U60C", "self-cleavage": 0.911}, {"variant": "C41U G59U", "self-cleavage": 0.937}, {"variant": "G25U C57U", "self-cleavage": 0.227}, {"variant": "A8U C13U", "self-cleavage": 0.302}, {"variant": "C19A C26G", "self-cleavage": 0.312}, {"variant": "C15U A42G", "self-cleavage": 0.246}, {"variant": "U9A C66A", "self-cleavage": 0.95}, {"variant": "C57A G74A", "self-cleavage": 0.597}, {"variant": "G52A A71G", "self-cleavage": 0.845}, {"variant": "G5A U27C", "self-cleavage": 0.0594}, {"variant": "G29C G80C", "self-cleavage": 0.0308}, {"variant": "U23G U72G", "self-cleavage": 0.214}, {"variant": "G29C A56C", "self-cleavage": 0.237}, {"variant": "C26A C75A", "self-cleavage": 0.0415}, {"variant": "C4U U65C", "self-cleavage": 1.06}, {"variant": "U65A A87C", "self-cleavage": 1.04}, {"variant": "U69A C86G", "self-cleavage": 1.09}, {"variant": "U46C C64U", "self-cleavage": 0.725}, {"variant": "G10C U79G", "self-cleavage": 0.346}, {"variant": "A16C C36A", "self-cleavage": 0.135}, {"variant": "C48G C85G", "self-cleavage": 0.875}, {"variant": "G28U C41U", "self-cleavage": 0.0779}, {"variant": "C24A G39A", "self-cleavage": 0.0779}, {"variant": "G53U C85U", "self-cleavage": 0.969}, {"variant": "G76U G80C", "self-cleavage": 0.204}, {"variant": "C49A C57U", "self-cleavage": 1.15}, {"variant": "G6A A56G", "self-cleavage": 0.848}, {"variant": "C3G G73U", "self-cleavage": 0.0583}, {"variant": "U23G A87G", "self-cleavage": 0.645}, {"variant": "G50A A87U", "self-cleavage": 1.08}, {"variant": "G38U U72C", "self-cleavage": 0.0978}, {"variant": "G25A G31A", "self-cleavage": 0.0773}, {"variant": "A8U G80A", "self-cleavage": 0.227}, {"variant": "G28C G82U", "self-cleavage": 0.102}, {"variant": "C7G G38C", "self-cleavage": 0.0594}, {"variant": "G10C C22U", "self-cleavage": 0.326}, {"variant": "A8U G68U", "self-cleavage": 0.858}, {"variant": "C24U G53A", "self-cleavage": 0.87}, {"variant": "C7G G76U", "self-cleavage": 0.237}, {"variant": "U46G G76C", "self-cleavage": 0.95}, {"variant": "G38C A42C", "self-cleavage": 0.104}, {"variant": "C26A G73U", "self-cleavage": 0.415}, {"variant": "G29A U65C", "self-cleavage": 0.17}, {"variant": "G10C G59A", "self-cleavage": 0.895}, {"variant": "A71C G81C", "self-cleavage": 0.172}, {"variant": "U47A G52A", "self-cleavage": 0.975}, {"variant": "C3A U9A", "self-cleavage": 0.657}, {"variant": "C48A G50A", "self-cleavage": 0.969}, {"variant": "C21A C32U", "self-cleavage": 0.0978}, {"variant": "G28A G55A", "self-cleavage": 0.153}, {"variant": "C41A G68A", "self-cleavage": 1.01}, {"variant": "C24G A43C", "self-cleavage": 0.0811}, {"variant": "A45G A71U", "self-cleavage": 0.997}, {"variant": "C49A A51U", "self-cleavage": 0.539}, {"variant": "G40A G81C", "self-cleavage": 0.29}, {"variant": "G5C G68C", "self-cleavage": 0}, {"variant": "G1U G31U", "self-cleavage": 0.385}, {"variant": "C19A A71G", "self-cleavage": 0.136}, {"variant": "C61U C63A", "self-cleavage": 0.758}, {"variant": "G1U G52A", "self-cleavage": 0.356}, {"variant": "C19U U27G", "self-cleavage": 0.237}, {"variant": "G40U A51C", "self-cleavage": 0.627}, {"variant": "A16G C63U", "self-cleavage": 0.997}, {"variant": "G53U G74U", "self-cleavage": 0.701}, {"variant": "U37A A77U", "self-cleavage": 0.104}, {"variant": "G11U A45C", "self-cleavage": 0.0841}, {"variant": "G5C A45G", "self-cleavage": 0.0875}, {"variant": "G5A U20C", "self-cleavage": 0}, {"variant": "G1A U27C", "self-cleavage": 0.119}, {"variant": "G6U G54C", "self-cleavage": 0.383}, {"variant": "C4A U37G", "self-cleavage": 0}, {"variant": "C63A C86A", "self-cleavage": 1.05}, {"variant": "G31C G74U", "self-cleavage": 0.143}, {"variant": "G29A C66U", "self-cleavage": 0.114}, {"variant": "C48A C49G", "self-cleavage": 1.01}, {"variant": "U37C G73U", "self-cleavage": 0.185}, {"variant": "U20A C44A", "self-cleavage": 0.0573}, {"variant": "C15A U65A", "self-cleavage": 0.388}, {"variant": "C33A C44U", "self-cleavage": 0.0707}, {"variant": "C7G U46A", "self-cleavage": 0}, {"variant": "C75A", "self-cleavage": 0.171}, {"variant": "C19G C64U", "self-cleavage": 0.056}, {"variant": "G31U U37A", "self-cleavage": 0.172}, {"variant": "G74C C84A", "self-cleavage": 0.177}, {"variant": "G2C U23A", "self-cleavage": 0}, {"variant": "C63G C85G", "self-cleavage": 1.02}, {"variant": "C19A G54A", "self-cleavage": 0.0536}, {"variant": "G52C G81C", "self-cleavage": 0.242}, {"variant": "C24G G29C", "self-cleavage": 0}, {"variant": "G50U G67C", "self-cleavage": 0.617}, {"variant": "C22A U47A", "self-cleavage": 0.208}, {"variant": "G34C U72G", "self-cleavage": 0.222}, {"variant": "U9G G76U", "self-cleavage": 1.13}, {"variant": "A42C C66U", "self-cleavage": 0.489}, {"variant": "G34C A43C", "self-cleavage": 0.364}, {"variant": "C14A G82A", "self-cleavage": 0.415}, {"variant": "G11U C32A", "self-cleavage": 0.0545}, {"variant": "A77U G82U", "self-cleavage": 0.0811}, {"variant": "C7U G39U", "self-cleavage": 0.289}, {"variant": "U23G G38A", "self-cleavage": 0.0923}, {"variant": "U27A U37A", "self-cleavage": 0.138}, {"variant": "C7A A8G", "self-cleavage": 0.831}, {"variant": "U9A G11A", "self-cleavage": 0.539}, {"variant": "C21A G34A", "self-cleavage": 0.119}, {"variant": "C19U C84G", "self-cleavage": 0.0332}, {"variant": "U47C U65G", "self-cleavage": 0.856}, {"variant": "U47C U65C", "self-cleavage": 0.733}, {"variant": "C22A G25A", "self-cleavage": 0.0369}, {"variant": "C32U A71C", "self-cleavage": 0.665}, {"variant": "G1U A83C", "self-cleavage": 0.259}, {"variant": "C14A G59C", "self-cleavage": 0.739}, {"variant": "C33G C84G", "self-cleavage": 0.0489}, {"variant": "U46G G50A", "self-cleavage": 0.525}, {"variant": "C33G C85A", "self-cleavage": 0.175}, {"variant": "A51C A56C", "self-cleavage": 0.703}, {"variant": "C19A A70G", "self-cleavage": 0.136}, {"variant": "U37G A77C", "self-cleavage": 0.158}, {"variant": "C24G C61U", "self-cleavage": 0.166}, {"variant": "C14U G82C", "self-cleavage": 0.415}, {"variant": "G11U G73U", "self-cleavage": 0.111}, {"variant": "G1A G39C", "self-cleavage": 0}, {"variant": "U20A G53C", "self-cleavage": 0.0773}, {"variant": "G29C C62G", "self-cleavage": 0.155}, {"variant": "A8G C75G", "self-cleavage": 0.525}, {"variant": "C7A U72C", "self-cleavage": 0.196}, {"variant": "U46A G50U", "self-cleavage": 0.73}, {"variant": "U12G C21G", "self-cleavage": 0.0665}, {"variant": "U9A C58U", "self-cleavage": 0.77}, {"variant": "C4U G29U", "self-cleavage": 0.0302}, {"variant": "U27A C58A", "self-cleavage": 0.997}, {"variant": "G1C C48A", "self-cleavage": 0.293}, {"variant": "U27C U46C", "self-cleavage": 0.138}, {"variant": "C58A G81C", "self-cleavage": 0.128}, {"variant": "G54A C57U", "self-cleavage": 1.02}, {"variant": "G67C A83U", "self-cleavage": 0.469}, {"variant": "C4A A42C", "self-cleavage": 0.0332}, {"variant": "C62U G80A", "self-cleavage": 0.348}, {"variant": "C41A C85G", "self-cleavage": 0.86}, {"variant": "U37A G55C", "self-cleavage": 0.299}, {"variant": "U23A C58G", "self-cleavage": 1.34}, {"variant": "C33U C85U", "self-cleavage": 0.831}, {"variant": "C15U G74C", "self-cleavage": 0.185}, {"variant": "U23A A51C", "self-cleavage": 0.731}, {"variant": "U12G A43C", "self-cleavage": 0.431}, {"variant": "G35C C64U", "self-cleavage": 0.348}, {"variant": "U12A G35C", "self-cleavage": 0.142}, {"variant": "C4G U79G", "self-cleavage": 0}, {"variant": "A8G C24U", "self-cleavage": 0.665}, {"variant": "C4U C33U", "self-cleavage": 0.612}, {"variant": "G59U G81A", "self-cleavage": 0.361}, {"variant": "G40C G54A", "self-cleavage": 0.398}, {"variant": "G40C G54U", "self-cleavage": 0.205}, {"variant": "U23G G53A", "self-cleavage": 0.306}, {"variant": "G31C C61A", "self-cleavage": 0.332}, {"variant": "C66G G80U", "self-cleavage": 0.116}, {"variant": "A56U G81A", "self-cleavage": 0.492}, {"variant": "U9G G81C", "self-cleavage": 0.443}, {"variant": "A71C G73U", "self-cleavage": 0.141}, {"variant": "C3U G68U", "self-cleavage": 0.866}, {"variant": "C4U A43G", "self-cleavage": 0}, {"variant": "U69G C85G", "self-cleavage": 1.01}, {"variant": "C75U U79G", "self-cleavage": 0.0594}, {"variant": "U20C A87U", "self-cleavage": 0.189}, {"variant": "G54C A71U", "self-cleavage": 0.731}]}]}
